According to paper PMC12470938:

Target: T1, Rme1 (Trichoderma reesei) (UniProt G0RR27)
T1 sequence: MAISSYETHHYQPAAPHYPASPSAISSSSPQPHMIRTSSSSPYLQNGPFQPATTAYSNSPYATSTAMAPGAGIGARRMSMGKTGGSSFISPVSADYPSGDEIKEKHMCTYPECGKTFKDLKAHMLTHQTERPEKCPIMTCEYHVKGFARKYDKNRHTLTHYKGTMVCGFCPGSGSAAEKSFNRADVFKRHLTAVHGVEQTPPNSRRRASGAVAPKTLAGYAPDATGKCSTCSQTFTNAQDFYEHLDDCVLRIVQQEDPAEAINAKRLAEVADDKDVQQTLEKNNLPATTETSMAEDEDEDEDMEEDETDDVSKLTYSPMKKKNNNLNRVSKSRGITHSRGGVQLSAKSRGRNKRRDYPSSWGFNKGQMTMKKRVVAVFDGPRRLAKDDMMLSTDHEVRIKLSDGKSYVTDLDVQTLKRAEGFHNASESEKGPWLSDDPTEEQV
Test: EMSA
Details: 20 mM Tris-HCl pH 7.4, 50 mM KCl, 5% glycerol, 1 mM DTT, 50 µg/mL BSA, 50 µM zinc sulfate; 100 ng probe, 25 min at room temperature; 6% native PAGE at 4 °C

## AGCAGCAGCGGCAATAACAAATACAGTAACAAATGGGGACCAGAATGCGAATTTGAAACGACAGGAACGAACACGGAGGAGGGGGCGGGGGTTGGCACGTTGGCTAAAGAATATTTCTACCTATCCACAGATGTAGC (double strand) [Pswo probe]
  binding: no binding
